Assay results reported in patent publication US20240238441A1.

Tests used:
[1] = biological target: Coatomer complex of HEK293T cells (Homo sapiens (Human)) (UniProt P53621)
[2] = biological target: Coatomer complex of HEK293T cells (Homo sapiens (Human)) (UniProt P53621); remark: listed apart in the source

Selection pattern Distribution (%), EV Fraction [1]: 83.4%
Wnt7a expression per ug of total protein, EV Fraction (tangential flow filtration) (per ug of total protein) [2]: 0.13
B1: Wnt7a-HA (ligand)
chain: LGASIICNKIPGLAPRQRAICQSRPDAIIVIGEGSQMGLDECQFQFRNGRWNCSALGERTVFGKELKVGSREAAFTYAIIAAGVAHAITAACTQGNLSDCGCDKEKQGQYHRDEGWKWGGCSADIRYGIGFAKVFVDAREIKQNARTLMNLHNNEAGRKILEENMKLECKCHGVSGSCTTKTCWTTLPQFRELGYVLKDKYNEAVHVEPVRASRNKRPTFLKIKKPLSYRKPMDTDLVYIEKSPNYCEEDPVTGSVGTQGRACNKTAPQASGCDLMCCGRGYNTHQYARVWQCNCKFHWCCYVKCNTCSERTEMYTCKYPYDVPDYA
